# Source: the nanobody polyreactivity screen of Harvey et al. (2022)
# Assay: yeast display, Sf9 membrane polyspecificity reagent, FACS + sequencing; frameworks hold sequencing errors
# Procedure, shortened: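 Synthetic nanobody libraries on Saccharomyces cerevisiae BJ5465 were galactose-induced for 36–48 hours, stained 1 hour at 4 °C with 10% biotinylated, detergent-solubilized Sf9 membrane reagent and enriched on streptavidin microbeads. FACS then separated cells into low and high (top ~1%) gates by anti-HA (expression) and streptavidin (reagent binding) fluorescence. Genes were colony-PCR amplified, MiSeq 2 × 250 sequenced and CDR-length filtered. A clone's polyreactivity label is that of its gate of origin.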
row,Sequence,polyreactivity (PSR sort gate)
1,QVQLVESGGGLVQAGGSLRLSCAASGFIFTFYAMGWYRQAPGKERELVAAISSSGGSTYYADSVKGRFTISRDNAKNTVYLQMNSLKPEDTAVYYCNAVRYHARSGWSDYWGQGTQVTVSS,high polyreactivity
2,QVQLVESGGRLVQAGGSLRLSCAASGYIVTIYAMGWYRQAPGKEREFVAAITWSGGRTYYADSVKGRFTISRDNPKNTVYIQRNSLTPEDTAVYYCDARVANYLSQMYYWGQGTQVTVSS,high polyreactivity
3,QVQLVESGGGLVQAGGSLPLSCAASGSTFAVYAMGWYRQAPGKERELVAAISFSGSTYADSVKGRFTISRDNAKNTVYLQMNSLKPEDTAVYYCAKEYRVFGWWYTKGDYWGQGTQVTVSS,low polyreactivity
4,QVQLVESGGGLDQAGGSLRLSCAASGRTFGYYARGWYRQAPGKERELVAAISYSGGTTYYADSVKGRYTISRDNAKNTVYLQMNSLKPEDTAVYYCATGGYSTRQSTFDYWGQGTQVTVSS,low polyreactivity
5,QVHLVESGGGLVQAGGSLRLSCSASGRIFRVYAMGWYRQPPGKERELVAAIDQRGGRTYYADSVKGRFTISRDNAKNTVYLQMNSLKPEDTAVYYCNAEYYVSSLVESEYWGQGSQVTVSS,low polyreactivity
6,QVQLVESGGGLVQAGGSLRLSCAASGSTFRGNAMGWYRQAPGKERELVASITGGGSTNYADSVKGRFTISRDNAKNTVYLQMNSLKPEDTAVYYCAADWGADFYGGQGTQVTVSS,low polyreactivity
7,QVQLEESGGGLGQAGGSLRLSCAASGSIFAYYAMGWYRQAPGKERELVAAISWGGGNTYYADSVKGRFTISRDNAKNNVYLQMNSLKPEDTAVYYCAAEDYYYYGVAYGYWGQGSQVTVSS,high polyreactivity
8,QVQHVESGGGLVQAGGSLRLSCAASGSTFLVYAMGWYRQAPGKERELVAAISGAGSTTYADSVKGRFTISRDNAKNTVYLQMNSMKPEDTAVSYCNARTVAIWSERYYWGQGTQVTVSS,low polyreactivity
9,QVQLVESGGGLVQAGGSLRLSCAASGYIFSRNDRGWYRQAPGKERELVARITGSAGSTYYADSVKGRFTISRDNAKNTVYLQMNSLKPEDTAVYYCARRWYTWRKNKYCRMDYWGQGTQVTVSS,low polyreactivity
10,QVQLVESGGGLVQAGGILSLSCAASGNTFKGNAMGWYRQAPGKERELVAAISWSTDSTYYADSVKGRFTISRDNAKNSVYLQMNSLKPEDTAIYYCAADYSHLPIAWYYYWGQGTQVTVSS,low polyreactivity
11,QVQLVESGGGLVQAGGSLRLSCAASGSIFYYNAMGWYRQAPGKERELVAAISWGDGITYYADSVKGRFTISRDNAKNTVYLQMNSLKPEDTAVYYCAVDYYYLPYEYWGQGTQVTVSS,high polyreactivity
12,QVQLVESGGGLVQAGGSLRLSCAASGSISGYYDMGWYRQAPGKERELVAASSWNGADTYYADSVKGRFTISRDNAKNTVYLQMNSLKPEDTAVYYCAAERENGDHYRYYYWGQGTQVNVSS,low polyreactivity
13,QVQLVESGGGLVQAGGSLRLSCAASGSTFFLYAMGWYRQAPGKERELVAAISTTGGSTNYADSVKGRFTISRDNAKNTVYLQMNSLKPEDTAVYYCAAGPSAQSIYDHWGQGTQVTVSS,low polyreactivity
14,QVQLVDSVGGLVQAGGSLRLSCAASGSIFGYYAMAWYRQAPGKERELFASITRSGDTTYYADSVKGRFTISRDNANNTVFLQMNSLKQEDTAVSYCAARRWRWYYDGFVRMDYWGQGTQVTVSS,high polyreactivity
15,QVQLVESGGGLVQAGGSLRLSCAASGSTFYGYAMGWYRQAPGKERELVAVISRSGGGTSYADSVKGRFTISRDNAKNTVYLQMNSLKPEDTAVYYCNAAKYLYRHGFMSAGDMYYWGQGTQVTVSS,high polyreactivity
16,QVQLVESGGGLVQAGGSLRLICAASGRIFDFYAMGWYRQAPGKERELVAAITNGGRTNYADSVKGRFTISRDNAKNTVYLQMNSLKPEDTAVYYCAARLAYWYYYAWRGPYYYWGQGTQVTVSS,high polyreactivity
17,QVQLVESGGGLVQAGGSLRLSCAASGSTFYPYAMGWYRQAPGKERELVAAISSGGSTSYADSVKGRFTISRDNAKNTVYLQMNSLKPEDTEVYYCNASSPGAVPVYDYDYWGQGTQVTVSS,low polyreactivity
